Data reported in the supplement of paper PMC7125110.
± gives the standard error. For some of these results: Fewer inactive variants are shown than the library holds.

B1: glmS ribozyme (parent)
chain: AUAAAAGCGCCAGAACUACAGAAAUGUAGUUGACGAGGAGGAGGUUUAUCGAAUUUUCGGCGGAUGCCUCCAAA

Key:
Conditions in all cases: with glucosamine-6-phosphate
glucosamine-6-phosphate [1] = variants of: B1; experiment: kcat; higher = faster cleavage; RNA array
Summary of the method: (§1)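 Barcoded ribozyme variants were transcribed in situ on sequenced MiSeq chips by E. coli RNA polymerase. At 37 °C, a hybridised Cy3 probe tracked them while glucosamine-6-phosphate (40 μM to 10 mM) in HEPES/KCl/Mg(OAc)2 buffer flowed in and tiles were imaged over ~14 h. Per-tile medians of signals normalised to baseline and to non-cleaving reference variants were fit to one- or two-exponential decays, giving kobs. kcat and KM came from weighted Michaelis–Menten fits across concentrations.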

glucosamine-6-phosphate [2] = variants of: B1; experiment: self-cleavage kobs at 160 uM GlcN6P; higher = faster cleavage; RNA array
Summary of the method: as §1

glucosamine-6-phosphate [3] = variants of: B1; experiment: self-cleavage kobs at 2500 uM GlcN6P; higher = faster cleavage; RNA array
Summary of the method: as §1

glucosamine-6-phosphate [4] = variants of: B1; experiment: self-cleavage kobs at 640 uM GlcN6P; higher = faster cleavage; RNA array
Summary of the method: as §1

glucosamine-6-phosphate [5] = variants of: B1; experiment: self-cleavage kobs at 10000 uM GlcN6P; higher = faster cleavage; RNA array
Summary of the method: as §1

glucosamine-6-phosphate [6] = variants of: B1; experiment: KM; higher = weaker cofactor use; RNA array
Summary of the method: as §1

glucosamine-6-phosphate [7] = variants of: B1; experiment: self-cleavage kobs at 40 uM GlcN6P; higher = faster cleavage; RNA array
Summary of the method: as §1

Row | Variant | kcat (glucosamine-6-phosphate [1]) [s⁻¹] | self-cleavage kobs at 160 uM GlcN6P (glucosamine-6-phosphate [2]) [s⁻¹] | self-cleavage kobs at 2500 uM GlcN6P (glucosamine-6-phosphate [3]) [s⁻¹] | self-cleavage kobs at 640 uM GlcN6P (glucosamine-6-phosphate [4]) [s⁻¹] | self-cleavage kobs at 10000 uM GlcN6P (glucosamine-6-phosphate [5]) [s⁻¹] | KM (glucosamine-6-phosphate [6]) [µM] | self-cleavage kobs at 40 uM GlcN6P (glucosamine-6-phosphate [7]) [s⁻¹]
1 | C50A C68A | 3.68e-05 ± 1.1e-05 | 3.75e-05 ± 1.4e-05 | 4.65e-05 ± 1.7e-05 | – | – | – | –
2 | C50A C68U | 1.77e-05 ± 3.7e-06 | – | – | – | – | – | –
3 | C11U C70A | 5.41e-05 ± 1e-05 | – | 5.81e-05 ± 9.9e-06 | 8.46e-05 ± 1.3e-05 | 4.63e-05 ± 6.2e-06 | – | –
4 | U31A | 0.0242 ± 0.0089 | 0.00127 ± 5.8e-05 | 0.00997 ± 0.00043 | 0.00431 ± 0.00015 | 0.0286 ± 0.0012 | 2460 ± 1100 | 0.000428 ± 7.9e-06
5 | A39C A42C | 6.31e-05 ± 3.9e-06 | – | 4.41e-05 ± 9.6e-06 | 3.24e-05 ± 1.5e-05 | 5.88e-05 ± 8.3e-06 | 890 ± 270 | –
6 | G37U C58U | < 1e-05 | – | – | – | < 1e-05 | – | –
7 | A53C C70A | 5.94e-05 ± 1.5e-05 | – | 6.85e-05 ± 1.7e-05 | – | 5.03e-05 ± 1.1e-05 | – | < 1e-05
8 | G13U A15G G32A C70G | 9.35e-05 ± 2.2e-06 | – | 8.14e-05 ± 1.6e-05 | 5.48e-05 ± 1.7e-05 | 8.98e-05 ± 1.9e-05 | 405 ± 40 | –
9 | G32C A33G | < 1e-05 | < 1e-05 | < 1e-05 | – | – | – | < 1e-05
10 | U31G G41A | 0.000638 ± 6.8e-05 | 7.06e-05 ± 1.2e-05 | 0.000482 ± 6.9e-05 | 0.000224 ± 2.5e-05 | 0.000506 ± 9.5e-05 | 1220 ± 220 | –
11 | C10U G29A | < 1e-05 | – | – | – | < 1e-05 | – | < 1e-05
12 | A33U C50U C68U | 2.95e-05 ± 1.3e-05 | – | – | < 1e-05 | – | – | –
13 | C10G U47G G60C | 0.000977 ± 0.00037 | 0.000156 ± 5e-05 | 0.000552 ± 0.00013 | 0.000256 ± 7.5e-05 | 0.0011 ± 0.00032 | – | –
14 | G41C U45G G66C | 4.62e-05 ± 1e-05 | – | – | – | 2.84e-05 ± 1.2e-05 | – | –
15 | G32C C58U | 3.33e-05 ± 5.5e-06 | – | – | – | – | – | –
16 | A15U U31A | 0.00127 ± 0.00026 | 4.67e-05 ± 2e-05 | 0.000874 ± 0.00015 | 0.000289 ± 5.3e-05 | 0.00101 ± 9.8e-05 | 2230 ± 880 | 3.45e-05 ± 7.5e-06
17 | A39G G40C | 9.61e-05 ± 1.3e-05 | – | 0.000101 ± 1.8e-05 | 4.2e-05 ± 1.4e-05 | 8.35e-05 ± 1.4e-05 | – | –
18 | A15G U46G | 0.00908 ± 0.00054 | 0.000667 ± 0.0001 | 0.00538 ± 0.00091 | 0.00198 ± 0.00026 | 0.00757 ± 0.00068 | 2020 ± 170 | 0.000184 ± 2e-05
19 | G29U A64U | 1.06e-05 ± 2.5e-07 | < 1e-05 | – | < 1e-05 | – | 4920 ± 300 | –

Row | Variant | kcat (glucosamine-6-phosphate [1]) [s⁻¹] | self-cleavage kobs at 160 uM GlcN6P (glucosamine-6-phosphate [2]) [s⁻¹] | self-cleavage kobs at 2500 uM GlcN6P (glucosamine-6-phosphate [3]) [s⁻¹] | self-cleavage kobs at 640 uM GlcN6P (glucosamine-6-phosphate [4]) [s⁻¹] | self-cleavage kobs at 10000 uM GlcN6P (glucosamine-6-phosphate [5]) [s⁻¹] | KM (glucosamine-6-phosphate [6]) [µM] | self-cleavage kobs at 40 uM GlcN6P (glucosamine-6-phosphate [7]) [s⁻¹]
20 | U30G U69A | 8.59e-05 ± 2.5e-05 | 3.45e-05 ± 1.7e-05 | 0.00013 ± 2e-05 | 4.5e-05 ± 1.1e-05 | 6.73e-05 ± 1.4e-05 | – | –
21 | G9C G37C | 1.88e-05 ± 8.6e-06 | – | – | – | < 1e-05 | – | –
22 | G66C C70A | 8.82e-05 ± 1.9e-05 | 8.3e-05 ± 3e-05 | 6.82e-05 ± 1.2e-05 | 4.17e-05 ± 1.3e-05 | 9e-05 ± 1.4e-05 | – | –
23 | C16A U55G | 0.00294 ± 0.001 | 0.000166 ± 3.8e-05 | 0.00101 ± 0.00012 | 0.000304 ± 5.7e-05 | 0.00216 ± 0.00033 | – | 4.26e-05 ± 1.2e-05
24 | G59A U65C | 1.55e-05 ± 5.6e-06 | – | – | – | – | – | –
25 | G40U U57A | 6e-05 ± 6.8e-06 | – | – | – | 2.24e-05 ± 1e-05 | – | < 1e-05
26 | G51A G59U | < 1e-05 | – | – | < 1e-05 | – | 157 ± 36 | < 1e-05
27 | A12C G38C | 1.42e-05 ± 5.2e-06 | – | – | – | – | – | –
28 | C68U C71G | 1.73e-05 ± 3.6e-06 | – | 1.93e-05 ± 8.3e-06 | 2.44e-05 ± 1e-05 | – | – | –
29 | G41A C71A | 0.000272 ± 3.8e-05 | 5.23e-05 ± 1.1e-05 | 0.000308 ± 5.6e-05 | 0.000125 ± 1.7e-05 | 0.000248 ± 2.8e-05 | 645 ± 210 | 2.7e-05 ± 8.9e-06
30 | C16U C70A | 0.000203 ± 1.9e-05 | 7.15e-05 ± 9.6e-06 | 0.000204 ± 2.2e-05 | 0.000148 ± 2.1e-05 | 0.000177 ± 2e-05 | 296 ± 79 | –
31 | G35U A36C | < 1e-05 | < 1e-05 | < 1e-05 | – | < 1e-05 | – | < 1e-05
32 | C8U G37A C58G | < 1e-05 | – | – | – | – | – | –
33 | C16A G51A U56G C68G | 1.58e-05 ± 2.3e-06 | – | – | – | – | – | –
34 | A15G C58G | 0.00042 ± 0.00013 | – | 8.41e-05 ± 1.3e-05 | – | 0.000197 ± 6.1e-05 | – | –
35 | A6U U56C | 3.09e-05 ± 1.4e-06 | < 1e-05 | – | – | 2.11e-05 ± 7.5e-06 | 4670 ± 590 | –
36 | A36G U45A | 3.07e-05 ± 8.9e-06 | – | – | – | – | – | –
37 | A12C C50G G66C | 0.000103 ± 2.8e-05 | 0.00011 ± 3.2e-05 | 0.000103 ± 2.6e-05 | 7.92e-05 ± 2.3e-05 | – | – | –
38 | A12C A39G | 0.0192 ± 0.0069 | 0.00113 ± 0.00026 | 0.00799 ± 0.0015 | 0.00513 ± 0.0012 | 0.0245 ± 0.0049 | 2230 ± 1000 | 0.000367 ± 4.7e-05
